Data taken from patent US20200087400A1 (EUREKA THERAPEUTICS, published 2020).

How the values were obtained:
[1] = target: T1, control peptide A2E-4/HLA-A*02:01 complex on T2 cells (member of the P19 mixture) (human); assay: flow cytometry, phage on T2 cells
T1 construct: Loaded on T2 cells as part of the mixture of 19 control peptides
Experimental: (§1) Individual phage clones from enriched phage display panning pools against PSA146/HLA-A*02:01 complex were incubated in the coated plates. Binding of the phage clones was detected by HRP-conjugated anti-M13 antibodies and developed using HRP substrate. The absorbance was read at 450 nm. […] Then, unique antibody clones were identified through DNA sequencing of ELISA-positive clones. […] T2 cells loaded with different peptides and β2M were first stained with purified scFv phage clones, followed by staining with a mouse anti-M13 mAb, and finally R-PE conjugated horse anti-mouse IgG from Vector Labs. Each step of the staining was performed for between 30-60 minutes on ice and the cells were washed twice between stainings. All 16 clones recognized PSA146-loaded T2 cells specifically. FIG. 3 provides examples of PSA146/HLA-A*02:01 specific phage clone binding to peptide-loaded T2 cells through FACS.

[2] = target: T2, control peptide A2E-2/HLA-A*02:01 complex on T2 cells (member of the P19 mixture) (human); assay: flow cytometry, phage on T2 cells
T2 construct: Loaded on T2 cells as part of the mixture of 19 control peptides
Experimental: as §1

[3] = target: T3, control peptide A2E-7/HLA-A*02:01 complex on T2 cells (member of the P19 mixture) (human); assay: flow cytometry, phage on T2 cells
T3 construct: Loaded on T2 cells as part of the mixture of 19 control peptides
Experimental: as §1

[4] = target: T4, control peptide A2E-19/HLA-A*02:01 complex on T2 cells (member of the P19 mixture) (human); assay: flow cytometry, phage on T2 cells
T4 construct: Loaded on T2 cells as part of the mixture of 19 control peptides
Experimental: as §1

[5] = target: T5, control peptide A2E-13/HLA-A*02:01 complex on T2 cells (member of the P19 mixture) (human); assay: flow cytometry, phage on T2 cells
T5 construct: Loaded on T2 cells as part of the mixture of 19 control peptides
Experimental: as §1

[6] = target: T6, control peptide A2E-1/HLA-A*02:01 complex on T2 cells (member of the P19 mixture) (human); assay: flow cytometry, phage on T2 cells
T6 construct: Loaded on T2 cells as part of the mixture of 19 control peptides
Experimental: as §1

[7] = target: T7, control peptide A2E-3/HLA-A*02:01 complex on T2 cells (member of the P19 mixture) (human); assay: flow cytometry, phage on T2 cells
T7 construct: Loaded on T2 cells as part of the mixture of 19 control peptides
Experimental: as §1

[8] = target: T8, control peptide A2E-10/HLA-A*02:01 complex on T2 cells (member of the P19 mixture) (human); assay: flow cytometry, phage on T2 cells
T8 construct: Loaded on T2 cells as part of the mixture of 19 control peptides
Experimental: as §1

[9] = target: T9, control peptide A2E-17/HLA-A*02:01 complex on T2 cells (member of the P19 mixture) (human); assay: flow cytometry, phage on T2 cells
T9 construct: Loaded on T2 cells as part of the mixture of 19 control peptides
Experimental: as §1

[10] = target: T10, control peptide A2E-23/HLA-A*02:01 complex on T2 cells (member of the P19 mixture) (human); assay: flow cytometry, phage on T2 cells
T10 construct: Loaded on T2 cells as part of the mixture of 19 control peptides
Experimental: as §1

[11] = target: T11, control peptide A2E-21/HLA-A*02:01 complex on T2 cells (member of the P19 mixture) (human); assay: flow cytometry, phage on T2 cells
T11 construct: Loaded on T2 cells as part of the mixture of 19 control peptides
Experimental: as §1

[12] = target: T12, control peptide A2E-16/HLA-A*02:01 complex on T2 cells (member of the P19 mixture) (human); assay: flow cytometry, phage on T2 cells
T12 construct: Loaded on T2 cells as part of the mixture of 19 control peptides
Experimental: as §1

[13] = target: T13, control peptide A2E-5/HLA-A*02:01 complex on T2 cells (member of the P19 mixture) (human); assay: flow cytometry, phage on T2 cells
T13 construct: Loaded on T2 cells as part of the mixture of 19 control peptides
Experimental: as §1

[14] = target: T14, control peptide A2E-8/HLA-A*02:01 complex on T2 cells (member of the P19 mixture) (human); assay: flow cytometry, phage on T2 cells
T14 construct: Loaded on T2 cells as part of the mixture of 19 control peptides
Experimental: as §1

[15] = target: T15, control peptide A2E-11/HLA-A*02:01 complex on T2 cells (member of the P19 mixture) (human); assay: flow cytometry, phage on T2 cells
T15 construct: Loaded on T2 cells as part of the mixture of 19 control peptides
Experimental: as §1

[16] = target: T16, control peptide A2E-15/HLA-A*02:01 complex on T2 cells (member of the P19 mixture) (human); assay: flow cytometry, phage on T2 cells
T16 construct: Loaded on T2 cells as part of the mixture of 19 control peptides
Experimental: as §1

[17] = target: T17, control peptide A2E-9/HLA-A*02:01 complex on T2 cells (member of the P19 mixture) (human); assay: flow cytometry, phage on T2 cells
T17 construct: Loaded on T2 cells as part of the mixture of 19 control peptides
Experimental: as §1

[18] = target: T18, control peptide A2E-14/HLA-A*02:01 complex on T2 cells (member of the P19 mixture) (human); assay: flow cytometry, phage on T2 cells
T18 construct: Loaded on T2 cells as part of the mixture of 19 control peptides
Experimental: as §1

[19] = target: T19, control peptide A2E-6/HLA-A*02:01 complex on T2 cells (member of the P19 mixture) (human); assay: flow cytometry, phage on T2 cells
T19 construct: Loaded on T2 cells as part of the mixture of 19 control peptides
Experimental: as §1

Bio-P19 member A2E-23 = target: T20, Bio-P19 member A2E-23 (chain 2 carries a C-terminal BirA substrate peptide (BSP), enzymatically biotinylated; the BSP letters are not given in the patent and are left out); assay: phage ELISA, streptavidin plate, anti-M13-HRP
T20 construct: also called biotinylated control peptide A2E-23/HLA-A*02:01 monomer
How it was run: (§2)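 Phage ELISA: individual scFv phage clones from panning pools enriched against PSA146/HLA-A*02:01 were incubated in coated streptavidin plates; binding was detected with HRP anti-M13 and HRP substrate, read at 450 nm. For flow cytometry, T2 cells loaded with peptide and β2M were stained with purified phage clones.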

Bio-P19 member A2E-2 = target: T21, Bio-P19 member A2E-2 (chain 2 carries a C-terminal BirA substrate peptide (BSP), enzymatically biotinylated; the BSP letters are not given in the patent and are left out); assay: phage ELISA, streptavidin plate, anti-M13-HRP
T21 construct: also called biotinylated control peptide A2E-2/HLA-A*02:01 monomer
How it was run: as §2

Bio-P19 member A2E-9 = target: T22, Bio-P19 member A2E-9 (chain 2 (heavy): C-terminal BirA substrate peptide, biotinylated there by BirA; tag letters not given, left out); assay: phage ELISA, streptavidin plate, anti-M13-HRP
T22 construct: also called biotinylated control peptide A2E-9/HLA-A*02:01 monomer; not shown: BirA substrate peptide (BSP) tag at the C-terminus of the heavy chain
How it was run: as §2

Bio-P19 member A2E-3 = target: T23, Bio-P19 member A2E-3 (chain 2 carries a C-terminal BirA substrate peptide (BSP), enzymatically biotinylated; the BSP letters are not given in the patent and are left out); assay: phage ELISA, streptavidin plate, anti-M13-HRP
T23 construct: also called biotinylated control peptide A2E-3/HLA-A*02:01 monomer
How it was run: as §2

Measured: binding result

B1: PSA146/HLA-A*02:01-specific scFv phage clone #12 (scFv, V domains shown)
VH: QMQLVQSGSEVKKPGASVKVSCKASGYTFTSYGISWVRQAPGQGLEWMGWISAYNGNTDYVQKLQGRVTMTTDTSTNTAYMELGSLGSDDTAVYYCARTNYNKYDIWGQGTLVTVSS
VL: QSVLTQPPSVSGAPGQRVTISCTGSSSNIGAGYDVHWYQQLPGTAPKLLIYGNSNRPSGVPDRFSGSKSGTSASLAITGLQAEDEADYYCQSYDSSLSEVFGTGTKVTVLG
no binding: all assays above

B2: PSA146/HLA-A*02:01-specific scFv phage clone #9 (scFv, V domains shown)
VH: QVQLVQSGAEVKKPGASVKVSCKASGYTFTSYGISWVRQAPGQGLEWMGWISAYNGNTNYAQKLQGRVTMTTDTSTSTAYMELRSLRSDDTAVYYCARSSQYYVWDSWGQGTLVTVSS
VL: QSVVTQPPSVSGAPGQRVTISCTGSSSNFGAGYDVHWYQQLPGTAPKLLIYGNSNRPSGVPDRFSGSKSGTSASLAITGLQAEDEADYYCQSYDSSLSGWVFGGGTKLTVLG
no binding: all assays above

B3: PSA146/HLA-A*02:01-specific scFv phage clone #10 (scFv, V domains shown)
VH: QVQLVQSGAEVKKPGSSVKVSCKASGGTFSSYAISWVRQAPGQGLEWMGWINPNSGGTNYAQKFQGRVTMTRDTSISTAYMELSRLRSDDTAVYYCARWSYYYFQQFWSLDGWGQGTLVTVSS
VL: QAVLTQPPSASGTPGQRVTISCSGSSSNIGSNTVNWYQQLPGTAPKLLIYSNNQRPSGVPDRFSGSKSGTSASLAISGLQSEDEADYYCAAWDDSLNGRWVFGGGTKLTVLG
no binding: all assays above

B4: PSA146/HLA-A*02:01-specific scFv phage clone #13 (scFv, V domains shown)
VH: QVQLVQSGAEVKKPGASVKVSCKASGYTFTSYYMHWVRQAPGQGLEWMGGFDPEDGETIYAQKFQGRVTMTEDTSTDTAYMGLSSLRSEDTAVYYCARYSYDYWGQGTLVTVSS
VL: QAVVTQEPSLTVSPGGTVTLTCASSTGAVTSGYYPNWFQQKPGQAPRALIYSTSNKHSWTPARFSGSLLGGKAALTLSGVQPEDEAEYYCLLYYGGAYVFGTGTKVTVLG
no binding: all assays above
